Consider 17 molecules from patent US20200308299A1 (NATIONAL UNIVERSITY CORPORATION KOCHI UNIVERSITY, published 2020).

First the molecules themselves.
T1: recombinant human Glypican-1 protein (R&D Systems, CF, 4519-GP-050) (human, UniProt P35052 24-530)
T1 construct: Bought protein; also called recombinant human GPC1
T1 sequence: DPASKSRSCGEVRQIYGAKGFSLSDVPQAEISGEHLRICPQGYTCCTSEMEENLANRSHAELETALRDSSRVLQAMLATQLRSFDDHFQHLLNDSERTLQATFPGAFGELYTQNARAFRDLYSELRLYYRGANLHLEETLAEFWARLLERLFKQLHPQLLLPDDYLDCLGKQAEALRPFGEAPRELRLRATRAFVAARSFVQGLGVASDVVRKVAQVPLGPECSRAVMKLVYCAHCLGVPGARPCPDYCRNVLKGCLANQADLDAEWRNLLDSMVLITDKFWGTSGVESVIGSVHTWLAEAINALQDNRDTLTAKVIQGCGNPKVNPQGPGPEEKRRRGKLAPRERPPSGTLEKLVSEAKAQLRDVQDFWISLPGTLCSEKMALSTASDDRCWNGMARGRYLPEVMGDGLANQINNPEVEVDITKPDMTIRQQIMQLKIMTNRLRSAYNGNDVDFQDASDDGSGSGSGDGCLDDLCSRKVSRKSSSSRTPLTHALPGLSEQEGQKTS

T2: human Glypican-1 (human, UniProt P35052 24-530, limits assumed)
T2 construct: also called human GPC1
T2 sequence: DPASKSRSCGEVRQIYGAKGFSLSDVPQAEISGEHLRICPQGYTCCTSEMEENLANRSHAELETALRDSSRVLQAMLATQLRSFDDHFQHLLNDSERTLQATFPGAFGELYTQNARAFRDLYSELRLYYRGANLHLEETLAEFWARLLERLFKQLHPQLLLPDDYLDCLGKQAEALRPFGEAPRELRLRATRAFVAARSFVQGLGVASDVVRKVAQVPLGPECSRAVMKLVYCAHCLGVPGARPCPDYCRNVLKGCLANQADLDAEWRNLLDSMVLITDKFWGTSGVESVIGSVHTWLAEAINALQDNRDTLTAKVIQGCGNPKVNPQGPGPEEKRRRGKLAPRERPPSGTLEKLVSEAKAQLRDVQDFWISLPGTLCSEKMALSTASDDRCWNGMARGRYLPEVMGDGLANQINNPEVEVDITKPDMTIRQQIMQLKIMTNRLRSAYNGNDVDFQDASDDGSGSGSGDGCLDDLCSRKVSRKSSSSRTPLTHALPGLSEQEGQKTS

B1: anti-Glypican-1 antibody clone K090-01a033 (antibody, mouse IgG2a, kappa, V domains shown)
VH: QVQLKQSGPELVKPGASVKISCKASGYSFTGYYMHWVKQSPEKSLEWIGEINPSTGDTTYNQKFKAKATLTVDKSSSTAYMQLKSLTSEDSAVYYCAREKRDDGVFAYWGQGTLVTVSS
VL: DIVMSQSPKSMSMSVGERVALSCKASENVGTYVSWYQQKPEQSPKLLIYGASNRYTGVPDRFTGSGSATDFTLTISSVQAEDLADYYCGQSYSYPLTFGAGTKLELKR
notes: Selected as scFv on phage; also called clone 01a033; anti-GPC1 monoclonal antibody (01a033)
B2: anti-Glypican-1 antibody clone K090-02a006 (antibody, mouse IgG2a, kappa, V domains shown)
VH: EVQLQQSGAELVKPGASVKISCRASGYSFTGYNMNWVKQSHGKSLEWIGNINPYYGTTNYNQKFKGKATLTVDKSSSTAYMQLNSLTSEDSAVYYCASDGYYGAMDYWGQGTSVTVSS
VL: DIKMTQSPKFMSTSVGDRVSVTCKASQNVGTYVAWYQQKPGQSPKALIYSASYRYSGVPDRFTGTGSGTDFTLTISNVQSEDLAEYFCQQYYNYPLTFGAGTKLELKR
notes: Selected as scFv on phage
B3: anti-Glypican-1 antibody clone K090-02a002 (antibody, mouse IgG2a, kappa, V domains shown)
VH: EVKLVESGGGLVKPGGSRKLSCAASGFTFSDYGMHWVRQAPEKGLEWVAYISSGSSTIYYADTVKGRFTISRDNAKNTLFLQMTSLRSEDTAMYYCARHSYYSYDVGGDYVMDYWGQGTSVTVSS
VL: DIVMSQSPKFMSTSVGDRVSITCKASQDVGTAVAWYQQKPGQSPKLLIYWASTRHTGVPDRFTGSGSGTDFTLTISNVQSEDLADYFCQQYSSYPLTFGAGTKLEIKR
notes: Selected as scFv on phage
B4: anti-Glypican-1 antibody clone K090-02a010 (antibody, mouse IgG2a, kappa, V domains shown)
VH: EVKLVESGGGLVKPGGSRKLSCAASGFTFSDYGMHWVRQAPEKGLEWVAYINSGSSTIYYADTVKGRFTISRDNAKNTLFLQMTSLRSGDTAMYYCARHSYYSYDVGGDYVMDYWGQGTSVTVSS
VL: DIVLTQSPKFMSTSVGDRVSITCKASQDVGTAVAWYQQKPGQSPKLLIYWASTRHTGVPDRFTGSGSGTDFTLTISNVQSEDLADYFCQQYSSYPLTFGAGTKLEIKR
notes: Selected as scFv on phage
B5: anti-Glypican-1 antibody clone K090-01a042 (antibody, mouse IgG2a, kappa, V domains shown)
VH: QVQLQQPGAELAKPGASVKMSCKASGYTFTRYWMHWVKQRPGQGLEWIGYINPSSGYTEYNQKFKDKATLTADKSSSTAYMQLSSLTSEDSAVYYCVRLGDYSYYFDYWGQGTTLTVSS
VL: DVVMTQTPLSLPVSLGDQASISCRSSQSIVHSNGNTYLEWYLQKPGQSPKLLIYKVSNRFSGVPDRFSGSGSGTDFTLKISRVEAEDLGVYYCFQGSHVPWTFGGGTKLELKR
notes: Selected as scFv on phage
B6: anti-Glypican-1 antibody clone K090-01a007 (antibody, mouse IgG2a, kappa, V domains shown)
VH: QVHLQQSGAELVKPGASVKLSCKASGYTFTSYWMHWVKQRPGQGLEWIGNIDPYDSETHYNQKFKDKATLTVDKSSSTAYMQLSSLTSEDSAVYYCARDSNWGYFDYWGQGTTLTVSS
VL: DVVMTQTPLSLPVSLGDQASISCRSSQSLVHSNGNTYLHWYLQKPGQSPKLLIYKVSNRFSGVPDRFSGSGSGTDFTLKISRVEAEDLGVYFCSQSTHVPWTFGGGTKLELKR
notes: Selected as scFv on phage
B7: anti-Glypican-1 antibody clone K090-02a014 (antibody, mouse IgG2a, kappa, V domains shown)
VH: EVQLQQSGPELVKPGASVKISCKASGYSFTGYYIHWVKQSPEKSLEWIGEINPSTGDITYNQKFKAKATLTVDKSSSTAYMQLKSLTSDDSAVYYCARERNYDRFAYWGQGTLVTVSS
VL: SIVMTQTPALMAASPGEKVTITCSVSSSISSSNLHWYQQKSETSPKPWIYGTSNLASGVPVRFSGSGSGTSYSLTISSMEAEDAATYYCQQWSSYPLTFGAGTKLEIKR
notes: Selected as scFv on phage
B8: anti-Glypican-1 antibody clone K090-02a034 (antibody, mouse IgG2a, kappa, V domains shown)
VH: EVQLQQSGPELVKPGASVKISCKASGYSFTGYYMHWVKQSPEKSLEWIGEINPSTGDTTYNQKFKAKATLTVDKSSSTAYIQLKSLTSEDSAVYYCARERNYDRFAYWGQGTLVTVSS
VL: QIVLSQSPAIMSASPGEKVTMTCSASSSVSYMYWYQQKPGSSPRLLIYDTSNLASGVPVRFSGSGSGTSYSLTISRMEAEDAATYYCQQWSSYPLTFGAGTKLELKR
notes: Selected as scFv on phage
B9: anti-Glypican-1 antibody clone K090-01a030 (antibody, mouse IgG2a, kappa, V domains shown)
VH: QVQLQQSGAELVRPGTSVKMSCKAAGYTFTNYWIGWVKQRPGHGLEWIGDIYPGGGYTHYNEKFKGKATLTADTSSSTAYMQLSSLTSEDSAIYYCARERVYYDGSRYFDVWGAGTTVTVSS
VL: DIKMTQSPKFLPVSAGDRVTMTCKASQSVGNNVAWYQQKPGQSPKLLIYYASNRYTGVPDRFTGSGSGTDFTFTISSVQVEDLAVYFCQQHYSSPWTFGGGTKLEIKR
notes: Selected as scFv on phage
B10: anti-Glypican-1 antibody clone K090-01a017 (antibody, mouse IgG2a, kappa, V domains shown)
VH: EVQLQQSGGELVRPGTSVKMSCKAAGYTFTNYWIGWVKQRPGHGLEWIGDLYPGGGYTHYNEKFKGKATLTADTSSSTAYMQLSSLTSEDSAIYYCARERVYFDGSRYFDVWGAGTTVTVSS
VL: SIVMTQTPKFLPVSAGDRVTMTCKASQSVGNNVAWYQQKPGQSPKLLIYYASNRYTGVPDRFTGSGSGTDFTFTISSVQVEDLAVYFCQQHYSSPWTFGGGTKLEIKR
notes: Selected as scFv on phage
B11: anti-Glypican-1 antibody clone K090-01a026 (antibody, mouse IgG2a, kappa, V domains shown)
VH: QVHLQQSGAELVRPGTSVKMSCKAAGYTFTNYWIGWVKQRPGHGLEWIGDIYPGGGYTHYNEKFKGKATLTADTSSSTAYMQLSSLTSEDSAIYYCARERVYYDGSRFFDVWGAGTTVTVSS
VL: DIVMSQSPKFLPVSAGDRVTMTCKASQSVGNNVAWYQQKPGQSPKLLIYYASNRYTGVPDRFTGSGSGTDFTFTISSVQVEDLAVYFCQQHYSSPWTFGGGTKLEIKR
notes: Selected as scFv on phage
B12: anti-Glypican-1 antibody clone K090-01a009 (antibody, mouse IgG2a, kappa, V domains shown)
VH: EVQLQQSGPELVKPGASVEISCKASGYSFTGYFMNWVKQSQGKSLEWIGRINPDNGDIFYNQKFKGKATLTVDKSSSTAHMELRSLTSEDSAVYYCARSWNWYFDVWGAGTTVTVSS
VL: DIQMTQSPASLSASVGETVTITCRASENIYSYLAWYQQKQGKSPQLLVYNAKTLAEGVPSRFSGSGSGTQFSLKINSLQPEDFGSYYCQHHYGTPYTFGSGTKLEIKR
notes: Selected as scFv on phage
B13: anti-Glypican-1 antibody clone K090-02a022 (antibody, mouse IgG2a, kappa, V domains shown)
VH: QVQLQQPGPELVKPGASVKMSCKASGYTFTDYYMNWVKQSHGKSLEWIGRVNPSNGGTSYNQKFKGKATLTVDKSLSTAYMQLNSLTSEDSAVYYCARSGENYYAMDYWGQGTSVTVSS
VL: DIQMTQSPASLSASVGETVTITCRASENIYSYLAWYQQKQGKSPQLLVYNGKTLAEGVSSRFSGSGSGTQFSLKINSLQPEDFGSYYCQNHYGVPWTFGGGTKLEIKR
notes: Selected as scFv on phage
B14: anti-Glypican-1 antibody clone K090-02a035 (antibody, mouse IgG2a, kappa, V domains shown)
VH: QVQLQQSGAELVKPGASVKLSCKTSGYTFTSYWMHWVKQRPGQGLEWIGNIDPSDSETHYNQKFKDKATLTVDKSSSTAYMQLSGLTSEDSAVYYCARNLGYWGQGTSVTVSS
VL: DIKMTQSPLSLPVSLGDQASISCRSSQSLVHSNGNTYLHWYLQKPGQSPKLLIYKVSNRFSGVPDRFSGSGSGTDFTLKISRVEAEDLGVYFCSQSTHVPYTFGGGTKLEIKR
notes: Selected as scFv on phage
B15: anti-Glypican-1 antibody clone K090-01a002 (antibody, mouse IgG2a, kappa, V domains shown)
VH: EVQLQQSGPELVKPGASVKISCKSSGYSFTRYYMHWVKHSPEKSLEWIGEINPSTGDTTYNQKFKAKATLTVDKSSSTAYMQLKSLTSEDSAVYYCAREKRDDGVLAYWGQGTLVTVSS
VL: DIQMTQSPKFLPVSAGDRVTMTCKASQSVGNNVAWYQQKPGQSPKLLIYYASNRYTGVPDRFTGSGSGTDFTFTISSVQVEDLAVYFCQQHYSSPLTFGAGTKLELKR
notes: Selected as scFv on phage
B16: anti-Glypican-1 antibody clone K090-01a021 (antibody, mouse IgG2a, kappa, V domains shown)
VH: QVQLKQSGPELVKPGASVKISCKASGYSFTGYYMHWVKQSPEKSLEWIGEINPSTGGTTYNQKFKAKATLTVDKSSSTAYMQLKSLTSEDSAVYYCAREKRDDGVFAYWGQGTLVTVSS
VL: SIVMTQTPKFLPVSAGDRVTMTCKASQSVGNNVAWYQQKPGQSPKLLIYYASNRYTGVPDRFTGSGSGTDFPFTISSVQVEDLAVYFCQQHYSSPLTFGAGTKLELKR
notes: Selected as scFv on phage
B17: anti-Glypican-1 antibody clone K090-01a016 (antibody, mouse IgG2a, kappa, V domains shown)
VH: QVHLQQSGPELVKPGASVKISCKASGYTFTDYYINWVKQKPGQGLEWIGYIDPYNDGSKYNEKFKGKATLTSDKSSSTAYMELSSLTSEDSAVYYCARTPYYSFYSYGFYFDYWGQGTTLTVSS
VL: DIVLTQSPASLAVSLGQRATISCRASKSVSTSSYSYMHWYQQKPGQPPKLLIKYASYLESGVPARFSGSGSGTDFTLNIHPVEEEDAATYYCQHSREFPLTFGAGTKLELKR
notes: Selected as scFv on phage

One assay has as its target T1, recombinant human Glypican-1 protein …. The assay is described as follows: ELISA on plate-coated recombinant human GPC1. A general note: An ELISA detects its analyte on a solid surface through an enzyme-linked reagent.
With B1, the binding result is “binds”.

The target of another assay is T2, human Glypican-1. The assay is described as follows: phage scFv panning, ELISA on immobilised human GPC1, cell-ELISA and flow cytometry on human GPC1 transformants and TE14 (Example 1).
Regarding B2, the binding result is on record as “binds”.

As for B3, the binding result is given as “binds”.

Consider B4, for which the binding result is reported as “binds”.

As for B5, the binding result is “binds”.

For the molecule B6, the binding result is “binds”.

Consider B7, for which the binding result is listed as “binds”.

As for B8, the binding result is recorded as “binds”.

For the molecule B9, the binding result is recorded as “binds”.

As to B10, the binding result is given as “binds”.

For the molecule B11, the binding result is “binds”.

B12: the binding result is recorded as “binds”.

With B13, the binding result was “binds”.

For the molecule B14, the binding result was “binds”.

For the molecule B1, the binding result is listed as “binds”.

As for B15, the binding result was “binds”.

Take B16: the binding result is “binds”.

Take B17: the binding result is given as “binds”.
